Test results: the supplement of paper PMC10724198
± gives the standard deviation of the averaged measurements.

system: Saccharomyces cerevisiae; assay: protein stability index of tFT-peptide fusion (C-terminal peptide) (PSI (0-1 scale)); higher = more stable (slower turnover); conditions: genetic background: wild type; temperature: 30 C
Protocol: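 Multiplexed protein stability (MPS) profiling in S. cerevisiae. Random 12-aa peptides (tFT-X12 library) are fused to the C-terminus of a sfGFP-mCherry tandem fluorescent timer, after mCherry and a GGGS linker. Cells are FACS-sorted into 8 mCherry/sfGFP bins and deep-sequenced. The protein stability index (PSI) is the read-weighted bin average, scaled from 0 (unstable) to 1 (stable). Only peptides with >10 reads are reported; cells were grown at 30 °C in SC-His with glucose.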
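Also: PSI is a weighted mean of sequencing reads over stability bins, variants kept only with over 10 reads, mCherry proximal and sfGFP distal, peptide attached via GGGS linker.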

Sequence	protein stability index
LMGDRRLFSFSV	0.719 ± 0.12
SACRSVPGYVAG	0.672 ± 0.046
SRCIIGILTRNF	0.6836 ± 0.0035
EDLVREKRKCEK	0.694 ± 0.043
PPIPLPPLAPPL	0.699 ± 0.038
PPPPPPPLRFIF	0.618 ± 0.035
RKYKNKRSKKEK	0.755 ± 0.1
SPPHAPPPVPSL	0.751 ± 0.026
PPASSPPSRPPP	0.62626 ± 0.00058
PPPPSLLPLSLP	0.608 ± 0.02
PPRPSPPPLPPS	0.683 ± 0.051
DICFTPGVVNAS	0.6587 ± 0.0038
FTSRGLLILGFM	0.619 ± 0.008
PLHLLPPPSSYP	0.759 ± 0.033
PFCGSPARTTAV	0.642 ± 0.052
APPRPCFSALTL	0.726 ± 0.076
GGGGGEAGVIGR	0.892 ± 0.15
VECEARTVEKAN	0.63072 ± 0.00022
LPVPLPYFVSYF	0.607 ± 0.009
VVIFYSSESRRR	0.724 ± 0.03
YLCEATFLLTWL	0.618 ± 0.024
LFVSCGGCLAMF	0.687 ± 0.0077
ATSCLPLPSCPG	0.726 ± 0.019
PILSGILFMSPP	0.755 ± 0.0092
RPTRSLYLLPLI	0.699 ± 0.019

Sequence	protein stability index
LACWAGGLGWGG	0.772 ± 0.044
GTHFRPAREERV	0.708 ± 0.039
SLWWRWQATIRR	0.714 ± 0.13
VKSMVCQGHLGI	0.722 ± 0.043
GRRDGRWGQIVR	0.679 ± 0.0097
VGWAGHVWFWWG	0.683 ± 0.064
VCLGGWCMWGWR	0.585 ± 0.017
PPPPQPTAPPNP	0.717 ± 0.049
DVLFFSALKAHR	0.6881 ± 0.003
CGTPWHSITCSA	0.55 ± 0.012
PPHAYTSTPSLF	0.67 ± 0.028
CPLPTAFRSTHV	0.691 ± 0.019
LVLDCPISEVLL	0.6403 ± 0.0055
MYPFKYGFASWV	0.583 ± 0.016
CCSWPSRLLLEG	0.722 ± 0.026
AFPSCCFFLSLS	0.662 ± 0.073
RGGGAARGGGVG	0.658 ± 0.009
GSEPCPRPCGPG	0.692 ± 0.048
SLAFGPTAFLPT	0.6818 ± 0.0038
CYLGSGFLFFLL	0.5209 ± 0.00091
PPPHHPIMPAKQ	0.63 ± 0.027
RSSVTIIGDINK	0.619 ± 0.016
PPPPPLPPPPPP	0.593 ± 0.021
QLLCMSEPFVRE	0.699 ± 0.057
PESPGSPEIRHR	0.75 ± 0.053

Sequence	protein stability index
RSTTRSTLSLHV	0.701 ± 0.021
WSSSVGIKGAWF	0.707 ± 0.022
RVCVERFDSLTL	0.733 ± 0.08
CDTIPNPLYKYD	0.75 ± 0.055
SGWVVECPRECW	0.719 ± 0.024
VSRITSRFEKKM	0.592 ± 0.0086
PLPKARRHHSPA	0.653 ± 0.033
KKCSNNPMTLRI	0.655 ± 0.032
VGVCCLSGDGFV	0.6889 ± 0.0048
DGCGFIGLSLLE	0.731 ± 0.079
KKKEKKRGRRKV	0.688 ± 0.073
QGRCHSRARMTP	0.731 ± 0.046
PNAFTEPTHPGR	0.742 ± 0.066
NKKKNKKEEHVE	0.688 ± 0.047
WPLISPFSKHRW	0.696 ± 0.055
GYSPLHPILLGL	0.577 ± 0.013
YALLLPRSVFQF	0.517 ± 0.038
TLCTSPWGVVAV	0.511 ± 0.024
GGGRRWPGGSGG	0.775 ± 0.075
SPPAPSLPTFPP	0.617 ± 0.096
SPPARLLASLSP	0.798 ± 0.2
FNETVLYIVPNG	0.639 ± 0.065
AVPSLYLLPFSF	0.69 ± 0.037
WGSISVEGRVAG	0.715 ± 0.015
KTEGQEKRVMSE	0.734 ± 0.046

Sequence	protein stability index
VRSSELFNGVWC	0.736 ± 0.093
WVGAGGGSGYGR	0.677 ± 0.018
AVWRVSGPFTDA	0.685 ± 0.071
RRVNDLGPPMRN	0.779 ± 0.092
ATMGRKSLRDRF	0.679 ± 0.012
SRGQSSNEVSPL	0.637 ± 0.017
PPPPPPSPLPPY	0.703 ± 0.01
PSRASGPYPRLS	0.701 ± 0.019
FSSCPPFRPFPL	0.787 ± 0.04
LGKWWDEECGEI	0.7834 ± 0.0042
VASLSGGQISFG	0.612 ± 0.029
GPPDLSSSRVLL	0.718 ± 0.11
RNTYKKREKNKK	0.7363 ± 0.0025
GLPWRGVGGGSG	0.719 ± 0.038
HRQAFSAVPCIH	0.588 ± 0.042
VCLFWGVSAGCK	0.65 ± 0.04
PPPLPPICTRPI	0.627 ± 0.099
GSGAICAFGFWC	0.6599 ± 0.0041
PSSRFLFFCSFF	0.677 ± 0.033
DGELFPDEPFYL	0.801 ± 0.049
GSPPHTLPLHGR	0.67 ± 0.03
IIRAGVPLSISE	0.652 ± 0.019
KRESNSKQTEKV	0.7 ± 0.099
